Assay results taken from the Human Domainome abundance scans (Beltran et al. 2025).
± gives the uncertainty stated by the source.

B1: Tyrosine-protein kinase BTK, residues 215 to 273; numbered along this chain, Q06187 (parent)
chain: ELKKVVALYDYMPMNANDLQLRKGDEYFILEESNLPWWRARDKNGQEGYIPSNYVTEAE
B2: Zinc finger homeobox protein 4, residues 2183 to 2238; numbered along this chain, Q86UP3 (parent)
chain: SSRTRFTDYQLRVLQDFFDTNAYPKDDEIEQLSTVLNLPTRVIVVWFQNARQKARK

Variants of: B1
Assay: abundance fitness (aPCA) (normalised: wild type 0, dead -1); higher = more abundant; growth selection in yeast, the domain comes from the species named
Conditions: Homo sapiens

E59Q and E59W are within error of each other in abundance fitness: -0.015 ± 0.1 for the first, -0.081 ± 0.064 for the second.

E59G and E59S are within error of each other in abundance fitness: 0.042 ± 0.056 for the first, 0.067 ± 0.053 for the second.

E59Y and E59V are within error of each other in abundance fitness: -0.116 ± 0.097 for the first, 0.023 ± 0.075 for the second.

E59F and E59D are within error of each other in abundance fitness: -0.072 ± 0.1 for the first, -0.128 ± 0.086 for the second.

E59H and E59T are within error of each other in abundance fitness: -0.054 ± 0.13 for the first, -0.012 ± 0.083 for the second.

E59I and E59P are within error of each other in abundance fitness: -0.014 ± 0.088 for the first, -0.025 ± 0.1 for the second.

E59K and E59M are within error of each other in abundance fitness: -0.008 ± 0.08 for the first, -0.138 ± 0.083 for the second.

Going from Y54F to Y54R, the abundance fitness falls from 0.101 ± 0.066 to -0.078 ± 0.033.

Y54T and Y54K are within error of each other in abundance fitness: -0.235 ± 0.059 for the first, -0.159 ± 0.07 for the second.

Y54Q and Y54V are within error of each other in abundance fitness: -0.153 ± 0.066 for the first, -0.203 ± 0.048 for the second.

First: Y54D
Second: Y54S
The abundance fitness of the first is lower: -0.562 ± 0.094 for the first, 0.022 ± 0.037 for the second.

Y54G and Y54A are within error of each other in abundance fitness: 0.037 ± 0.042 for the first, 0.02 ± 0.05 for the second.

Y54W and Y54H are within error of each other in abundance fitness: -0.074 ± 0.06 for the first, -0.009 ± 0.066 for the second.

Going from Y54M to Y54N, the abundance fitness falls from 0.035 ± 0.066 to -0.266 ± 0.065.

First: Y54I
Second: Y54P
The abundance fitness of the first is higher: -0.228 ± 0.075 for the first, -0.93 ± 0.099 for the second.

Y54L and Y54C are within error of each other in abundance fitness: -0.109 ± 0.034 for the first, -0.037 ± 0.05 for the second.

Variants of: B2
Assay: as above
Conditions: Homo sapiens

SSRFRFTDYQLRVLQDFFDTNAYPKDDEIEQLSTVLNLPTRVIVVWFQNARQKARK [T4F] and SSRERFTDYQLRVLQDFFDTNAYPKDDEIEQLSTVLNLPTRVIVVWFQNARQKARK [T4E] are within error of each other in abundance fitness: -0.182 ± 0.16 for the first, -0.368 ± 0.13 for the second.

Going from SSRNRFTDYQLRVLQDFFDTNAYPKDDEIEQLSTVLNLPTRVIVVWFQNARQKARK [T4N] to SSRQRFTDYQLRVLQDFFDTNAYPKDDEIEQLSTVLNLPTRVIVVWFQNARQKARK [T4Q], the abundance fitness falls from 0.047 ± 0.14 to -0.269 ± 0.16.

Compared with SSRARFTDYQLRVLQDFFDTNAYPKDDEIEQLSTVLNLPTRVIVVWFQNARQKARK [T4A], SSRMRFTDYQLRVLQDFFDTNAYPKDDEIEQLSTVLNLPTRVIVVWFQNARQKARK [T4M] is higher in abundance fitness: -0.698 ± 0.14 for the first, 0.392 ± 0.11 for the second.

Compared with SSRHRFTDYQLRVLQDFFDTNAYPKDDEIEQLSTVLNLPTRVIVVWFQNARQKARK [T4H], SSRCRFTDYQLRVLQDFFDTNAYPKDDEIEQLSTVLNLPTRVIVVWFQNARQKARK [T4C] is lower in abundance fitness: 0.096 ± 0.13 for the first, -0.446 ± 0.13 for the second.

Compared with SSRGRFTDYQLRVLQDFFDTNAYPKDDEIEQLSTVLNLPTRVIVVWFQNARQKARK [T4G], SSRLRFTDYQLRVLQDFFDTNAYPKDDEIEQLSTVLNLPTRVIVVWFQNARQKARK [T4L] is higher in abundance fitness: -0.328 ± 0.092 for the first, 0.072 ± 0.083 for the second.

Going from SSRPRFTDYQLRVLQDFFDTNAYPKDDEIEQLSTVLNLPTRVIVVWFQNARQKARK [T4P] to SSRKRFTDYQLRVLQDFFDTNAYPKDDEIEQLSTVLNLPTRVIVVWFQNARQKARK [T4K], the abundance fitness falls from -0.109 ± 0.11 to -0.571 ± 0.15.

SSRDRFTDYQLRVLQDFFDTNAYPKDDEIEQLSTVLNLPTRVIVVWFQNARQKARK [T4D] and SIRTRFTDYQLRVLQDFFDTNAYPKDDEIEQLSTVLNLPTRVIVVWFQNARQKARK [S2I] are within error of each other in abundance fitness: 0.015 ± 0.16 for the first, -0.059 ± 0.13 for the second.

SCRTRFTDYQLRVLQDFFDTNAYPKDDEIEQLSTVLNLPTRVIVVWFQNARQKARK [S2C] and SQRTRFTDYQLRVLQDFFDTNAYPKDDEIEQLSTVLNLPTRVIVVWFQNARQKARK [S2Q] are within error of each other in abundance fitness: 0.197 ± 0.096 for the first, 0.262 ± 0.16 for the second.

Compared with SARTRFTDYQLRVLQDFFDTNAYPKDDEIEQLSTVLNLPTRVIVVWFQNARQKARK [S2A], SVRTRFTDYQLRVLQDFFDTNAYPKDDEIEQLSTVLNLPTRVIVVWFQNARQKARK [S2V] is higher in abundance fitness: -0.407 ± 0.094 for the first, -0.043 ± 0.087 for the second.

Going from SLRTRFTDYQLRVLQDFFDTNAYPKDDEIEQLSTVLNLPTRVIVVWFQNARQKARK [S2L] to SWRTRFTDYQLRVLQDFFDTNAYPKDDEIEQLSTVLNLPTRVIVVWFQNARQKARK [S2W], the abundance fitness falls from -0.144 ± 0.098 to -0.477 ± 0.17.

SERTRFTDYQLRVLQDFFDTNAYPKDDEIEQLSTVLNLPTRVIVVWFQNARQKARK [S2E] and SNRTRFTDYQLRVLQDFFDTNAYPKDDEIEQLSTVLNLPTRVIVVWFQNARQKARK [S2N] are within error of each other in abundance fitness: 0.195 ± 0.11 for the first, 0.125 ± 0.15 for the second.

SHRTRFTDYQLRVLQDFFDTNAYPKDDEIEQLSTVLNLPTRVIVVWFQNARQKARK [S2H] and SPRTRFTDYQLRVLQDFFDTNAYPKDDEIEQLSTVLNLPTRVIVVWFQNARQKARK [S2P] are within error of each other in abundance fitness: -0.106 ± 0.16 for the first, -0.012 ± 0.12 for the second.

SDRTRFTDYQLRVLQDFFDTNAYPKDDEIEQLSTVLNLPTRVIVVWFQNARQKARK [S2D] and SKRTRFTDYQLRVLQDFFDTNAYPKDDEIEQLSTVLNLPTRVIVVWFQNARQKARK [S2K] are within error of each other in abundance fitness: 0.254 ± 0.11 for the first, 0.053 ± 0.19 for the second.

First: SFRTRFTDYQLRVLQDFFDTNAYPKDDEIEQLSTVLNLPTRVIVVWFQNARQKARK [S2F]
Second: SMRTRFTDYQLRVLQDFFDTNAYPKDDEIEQLSTVLNLPTRVIVVWFQNARQKARK [S2M]
The abundance fitness of the first is lower: -0.229 ± 0.14 for the first, 0.102 ± 0.17 for the second.

SGRTRFTDYQLRVLQDFFDTNAYPKDDEIEQLSTVLNLPTRVIVVWFQNARQKARK [S2G] and STRTRFTDYQLRVLQDFFDTNAYPKDDEIEQLSTVLNLPTRVIVVWFQNARQKARK [S2T] are within error of each other in abundance fitness: -0.004 ± 0.077 for the first, 0.151 ± 0.13 for the second.

SYRTRFTDYQLRVLQDFFDTNAYPKDDEIEQLSTVLNLPTRVIVVWFQNARQKARK [S2Y] and SRRTRFTDYQLRVLQDFFDTNAYPKDDEIEQLSTVLNLPTRVIVVWFQNARQKARK [S2R] are within error of each other in abundance fitness: -0.07 ± 0.14 for the first, -0.106 ± 0.091 for the second.

ISRTRFTDYQLRVLQDFFDTNAYPKDDEIEQLSTVLNLPTRVIVVWFQNARQKARK [S1I] and GSRTRFTDYQLRVLQDFFDTNAYPKDDEIEQLSTVLNLPTRVIVVWFQNARQKARK [S1G] are within error of each other in abundance fitness: -0.026 ± 0.34 for the first, 0.276 ± 0.15 for the second.

CSRTRFTDYQLRVLQDFFDTNAYPKDDEIEQLSTVLNLPTRVIVVWFQNARQKARK [S1C] and YSRTRFTDYQLRVLQDFFDTNAYPKDDEIEQLSTVLNLPTRVIVVWFQNARQKARK [S1Y] are within error of each other in abundance fitness: 0.092 ± 0.18 for the first, -0.241 ± 0.17 for the second.

First: WSRTRFTDYQLRVLQDFFDTNAYPKDDEIEQLSTVLNLPTRVIVVWFQNARQKARK [S1W]
Second: FSRTRFTDYQLRVLQDFFDTNAYPKDDEIEQLSTVLNLPTRVIVVWFQNARQKARK [S1F]
The abundance fitness of the first is lower: -1.16 ± 0.35 for the first, 0.106 ± 0.2 for the second.

TSRTRFTDYQLRVLQDFFDTNAYPKDDEIEQLSTVLNLPTRVIVVWFQNARQKARK [S1T] and MSRTRFTDYQLRVLQDFFDTNAYPKDDEIEQLSTVLNLPTRVIVVWFQNARQKARK [S1M] are within error of each other in abundance fitness: -0.009 ± 0.16 for the first, 0.045 ± 0.28 for the second.

Compared with ASRTRFTDYQLRVLQDFFDTNAYPKDDEIEQLSTVLNLPTRVIVVWFQNARQKARK [S1A], PSRTRFTDYQLRVLQDFFDTNAYPKDDEIEQLSTVLNLPTRVIVVWFQNARQKARK [S1P] is lower in abundance fitness: 0.062 ± 0.2 for the first, -0.575 ± 0.29 for the second.

SSFTRFTDYQLRVLQDFFDTNAYPKDDEIEQLSTVLNLPTRVIVVWFQNARQKARK [R3F] and SSQTRFTDYQLRVLQDFFDTNAYPKDDEIEQLSTVLNLPTRVIVVWFQNARQKARK [R3Q] are within error of each other in abundance fitness: 0.32 ± 0.2 for the first, 0.053 ± 0.11 for the second.

SSLTRFTDYQLRVLQDFFDTNAYPKDDEIEQLSTVLNLPTRVIVVWFQNARQKARK [R3L] and SSWTRFTDYQLRVLQDFFDTNAYPKDDEIEQLSTVLNLPTRVIVVWFQNARQKARK [R3W] are within error of each other in abundance fitness: 0.358 ± 0.089 for the first, 0.253 ± 0.094 for the second.

SSETRFTDYQLRVLQDFFDTNAYPKDDEIEQLSTVLNLPTRVIVVWFQNARQKARK [R3E] and SSPTRFTDYQLRVLQDFFDTNAYPKDDEIEQLSTVLNLPTRVIVVWFQNARQKARK [R3P] are within error of each other in abundance fitness: 0.201 ± 0.11 for the first, 0.09 ± 0.12 for the second.

SSNTRFTDYQLRVLQDFFDTNAYPKDDEIEQLSTVLNLPTRVIVVWFQNARQKARK [R3N] and SSATRFTDYQLRVLQDFFDTNAYPKDDEIEQLSTVLNLPTRVIVVWFQNARQKARK [R3A] are within error of each other in abundance fitness: 0.364 ± 0.13 for the first, 0.358 ± 0.083 for the second.

SSKTRFTDYQLRVLQDFFDTNAYPKDDEIEQLSTVLNLPTRVIVVWFQNARQKARK [R3K] and SSHTRFTDYQLRVLQDFFDTNAYPKDDEIEQLSTVLNLPTRVIVVWFQNARQKARK [R3H] are within error of each other in abundance fitness: 0.31 ± 0.12 for the first, 0.367 ± 0.12 for the second.

SSDTRFTDYQLRVLQDFFDTNAYPKDDEIEQLSTVLNLPTRVIVVWFQNARQKARK [R3D] and SSVTRFTDYQLRVLQDFFDTNAYPKDDEIEQLSTVLNLPTRVIVVWFQNARQKARK [R3V] are within error of each other in abundance fitness: 0.343 ± 0.14 for the first, 0.334 ± 0.08 for the second.

SSMTRFTDYQLRVLQDFFDTNAYPKDDEIEQLSTVLNLPTRVIVVWFQNARQKARK [R3M] and SSCTRFTDYQLRVLQDFFDTNAYPKDDEIEQLSTVLNLPTRVIVVWFQNARQKARK [R3C] are within error of each other in abundance fitness: 0.344 ± 0.12 for the first, 0.484 ± 0.099 for the second.

SSTTRFTDYQLRVLQDFFDTNAYPKDDEIEQLSTVLNLPTRVIVVWFQNARQKARK [R3T] and SSITRFTDYQLRVLQDFFDTNAYPKDDEIEQLSTVLNLPTRVIVVWFQNARQKARK [R3I] are within error of each other in abundance fitness: 0.368 ± 0.13 for the first, 0.489 ± 0.16 for the second.

SSGTRFTDYQLRVLQDFFDTNAYPKDDEIEQLSTVLNLPTRVIVVWFQNARQKARK [R3G] and SSYTRFTDYQLRVLQDFFDTNAYPKDDEIEQLSTVLNLPTRVIVVWFQNARQKARK [R3Y] are within error of each other in abundance fitness: 0.297 ± 0.065 for the first, 0.198 ± 0.16 for the second.
